Test: yeast display, Sf9 membrane polyspecificity reagent, FACS + sequencing; frameworks hold sequencing errors
How it was run: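 Galactose induction of a Saccharomyces cerevisiae BJ5465 synthetic nanobody display library ran 36–48 hours. The cells were then stained for 1 hour at 4 °C with 10% biotinylated, detergent-solubilized Sf9 membrane reagent, pulled down on streptavidin microbeads and FACS-sorted into low and high (top ~1%) gates on expression and reagent-binding fluorescence. Labels for polyreactivity follow the gate of origin.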

| Sequence | polyreactivity (PSR sort gate) |
| --- | --- |
| QVQLVESGGGLVQAGGSLRLSSPASGFNFKSNCMGWYRQAPGKERELIADIRRSVGSTYYADYVKGRFTISRDNAKNTVYLQMNSLKPEDTSVYYCNAKYIKGRDWGQCTQVTVSS | high polyreactivity |
| QVQLVESGGGLVQAGGSLRLSSPASGFTFLAYAMGWYRQAPGKERELVAAISASSGRTRYADSVKGRFTISRDNAKNTVYLQMISLKPEDTAVYYCAARYRGTYRRDYWGQGTQVTVSS | high polyreactivity |
| QVQLVESGGGLVQAGGSLRLSSSASGGIFRSYAMGWYRQAPGKERELVATITDRGGSTYYADSVKGRFTISRDNAKNTVYLQMNSLKPEDTAVYYCAAELVNRLWYRVVHFDYWGQGPQVTVSS | low polyreactivity |
| QVQLVESGGGLVQAGGSLRLSSSASGRIFVYYAMGWYRQAPGKERELVAAITYSVDSTYYADSVKARFTISRDNAKNTVYLQMNSLKPEDTAVYYCATDVDWAYGYQYEYWGQGTQVTVSS | low polyreactivity |
| QVQLVESGGGLVQAGGSLRLSSSASGSIFDGYAMGWYRQAPGKEREFVAAIRWGDGIKYYADSVKGRFTISRDNAKNTVYLQMNSLTPEDTAVYYCAAVQHGHEPRVQDSYDYWGQGTQVTVSS | low polyreactivity |
| QVQLVESGGGLVQAGGSLRLSWAASGGIFKVYGMRWYRQAPGKERELVAAISWTTGGTYYADSVKGRFTISRDNAKNTVYLQMNSLKPEDTAVYYCAAEYADSWSAFDWNYYYWGQGTQVTVSS | high polyreactivity |
| QVQLVESGGGLVQAGGSLRLSWAASGRIIYGYAMGWYRQAPGKERELVAAITATYYADSVKGRFTISRDNAKNTVYLQMNSLKPEDTAVYYCNAYLYPKQPLSPPDPTFEGGYWGQGTQVTVSS | low polyreactivity |
| QVQLVESGGGLVQAGGSLRLTCAASASIFGHNTMGWNREAPGKERELVAAISVSGTRTYYADSVKGRFTISRVNAKNTVYLQMNSLKPEDTAVYYCAAEISRVRQGVAWSYKYEYWGQGTQVTVSS | high polyreactivity |
| QVQLVESGGGLVQAGGSLRLTCAASGFIFDEYAMGWYRQAPGKERELVAAISWSGSRTYYADSVKGRFTISRDNAKTTVYLQMNSLKPEDTAVYYCAKVTGVGAGRRNYWGQGTQVTVSS | high polyreactivity |
| QVQLVESGGGLVQAGGSLRLTCAASGFIFKFYAMGWSRQAPGKEREVVAAITSSGGSTYYADSVKGRFTISRDNAKNTVYLQMNSLKPEDTAVYYCAAQFPGVYYYIYDYWGQGTQVTVSS | high polyreactivity |
| QVQLVESGGGLVQAGGSLRLTCAASGFIFLPYAMGWYRQAPGKERELVAAITRGGRTYYADSVKGRFTISRDNAKNTVYLQMNSLKPEDTAVYYCAATTYLVWGYNYWGQGTQVTVSS | low polyreactivity |
| QVQLVESGGGLVQAGGSLRLTCAASGFIFNHNAMGWYRQAPGKERELVAAISSGGRTYYADSVKGRFTISRDNAKNTVYLQMNSLKPEDTAVYYCAKDTKYSSQYGKYGYWGQGTQVTVSS | low polyreactivity |
| QVQLVESGGGLVQAGGSLRLTCAASGFIFPRYAMGWYRQAPGKERELVAAISYSGGSTYYADSVKGRFTISRDNAKNTVYLQMNSLKPEDTAVYYCNKDFPPQGQLRNMYYWGQGTQVTVSS | high polyreactivity |
| QVQLVESGGGLVQAGGSLRLTCAASGFIFQNYAMGWYIQAPGKERELVSAIDFTDGSKYYADSVKGRYTISRDNAKNSVYLQMNSLKPEDTSVDYCNALDYLYGGIYLEEDYWGQGTQVTVSS | low polyreactivity |
| QVQLVESGGGLVQAGGSLRLTCAASGFIFSRYTMGWYRQAPGKERELVAAISRRGGNTYYADSVKGRFTISRDNAKNTVYLQMNSLKPEDTAVYYCAADYAWPLRVTGDYWGQGTQVTVSS | low polyreactivity |
| QVQLVESGGGLVQAGGSLRLTCAASGFIFTYYAMGWYRQAPGKERELVAAISSSGGRTAYADSVKGRYTISRDNAKNTVYLQMNSLKPEDTAVYYCAARIRASGGKDGYNSWGQGTQVTVSS | high polyreactivity |
| QVQLVESGGGLVQAGGSLRLTCAASGFIFWANAMGWYRPAPGKERELVAAIRYSGGRTYYADSVKGRYTISRDNAKNTVFLQKNSLKPEDTAVYYCAKEYKKYGGFVVENDYWGQGTQVNVSS | low polyreactivity |
| QVQLVESGGGLVQAGGSLRLTCAASGFILKYYAMGWYRHAPGKERHLVAAITVSGGSTYYADSVKGRFTISRDNAKNTVYLQMNSLKPEDTAVYYCNADYPRGGAGLLDYWGQCTQVTVSS | low polyreactivity |
| QVQLVESGGGLVQAGGSLRLTCAASGFISSENAMGWYRQAPGKERELVAAISSGGCTNYADSVKGRFTISRDNAKNTVYLQMNSLKEEDTAVYYCAATLPGWYNEDDSWGQGTHVTVSS | low polyreactivity |
| QVQLVESGGGLVQAGGSLRLTCAASGFNFWDYAMGWYRQAPGKERELFAAISDSGGDTYYADSVKGRFTISRDNAKNTVYLQMNSLKPEDTAVYYCASDVELWVFRGQQYDYWGQGTQVTVSS | low polyreactivity |
| QVQLVESGGGLVQAGGSLRLTCAASGFTFGSYVMGWYRQAPGKERELVADISIRGGSTYYADSVKGRFTISRDNAKNTVYLQMHSLKPEDTAVYYCNADPAFYYWEGIVGGADYDYWGIGTQVTVSS | low polyreactivity |
| QVQLVESGGGLVQAGGSLRLTCAASGFTFYLNAMGWYRQAPGKERELVAAITDDGDSTYYADSVKGRFTISRDNAKNTVYLQMNSLKPEDTAVYYCNTVYGPDLDGTEYDYWGQGTQVTVSS | low polyreactivity |

| Sequence | polyreactivity (PSR sort gate) |
| --- | --- |
| QVQLVESGGGLVQAGGSLRLTCAASGFTFYWYTMGWYRQAPGKERELVATISGSGGRTYYADSVKGRFTISRDNAKNTVYLQMNSLKPEDTAVYYCNAGRPYKYGYWGQGTQVTVSS | high polyreactivity |
| QVQLVESGGGLVQAGGSLRLTCAASGGIFRPNAMGWYRPAPGKERELVASIDDGDSTNYADSVKGPFTISRDNAKNTVSLQMNSLKPEDTAVYYFAAEQGYTVIYDYWGQGSQVTVSS | low polyreactivity |
| QVQLVESGGGLVQAGGSLRLTCAASGGISLYYVMGWYRQAPGKERELVADISGDDSTNYADSVKGRFTISRDNAKNTVYLQMNSLKPEDTAVYYCAAVPGLFYLPYDYWGQGTQVTVSS | low polyreactivity |
| QVQLVESGGGLVQAGGSLRLTCAASGGTFRRYTMGWYRQAPGKERELVAVISRSGGSTYYADSVKGRFTISRDNAKNTVYLQMNRLKPEDTAVYYCAVVYYNGYDWGQGTQVTVSS | high polyreactivity |
| QVQLVESGGGLVQAGGSLRLTCAASGIIFSYNAMGWYRQAPGKERELVAAIRWSGDSTYYADSVKGRFTISRDIAKNTVYLQMNSMKPEDTAVYYCAAEFFLSYPRYEYWGQGTQVTVSS | low polyreactivity |
| QVQLVESGGGLVQAGGSLRLTCAASGITFGDYALGWYRQAPGKERELVAAITRRSGNTRYADSVKGRFTISRDNAKNTVYLQMNSLKPEDTAVYYCNARWFSYARGFENGYWGQGTQVTVSS | high polyreactivity |
| QVQLVESGGGLVQAGGSLRLTCAASGITFISYAMGWYIQAPGKERELVAAITKSGGRTYYADSVKGRFTISRDNAKKTVYLQMNSLKPEDTAVYYCAAYHLRDNRIGGGYWGQGTQVTVSS | high polyreactivity |
| QVQLVESGGGLVQAGGSLRLTCAASGITFYGYAMGWYRQAPGKERELVAAISKSGGSTHYADSVKGRFTISRDNAKNTVYLQMNSLKPEDTAVYYCAAAYWTRLRRMDYWGQGTQVTVSS | low polyreactivity |
| QVQLVESGGGLVQAGGSLRLTCAASGLIFARNAMGWYRQAPGKDRELVAAISSSGNTYADSVKGRFTISRDNAKNTVYLHMNSLKPEDTAVYYCNAVRRIRVTSTYDYWGQGTQVTVSS | high polyreactivity |
| QVQLVESGGGLVQAGGSLRLTCAASGLIFRRYAMGWYRQAPGKERELVAAINTSGGSTYYADSVKGRFTISRDNAKNTVYLQMNSLKPEDSAVSYCNTVSPYKYDWGKGTQVTVSS | low polyreactivity |
| QVQLVESGGGLVQAGGSLRLTCAASGLILYWYAMGLYRQAPGTEMELVAAISISGGSTYYADSVKGRFTISRDNAKNTVYLQMNSLKPEDTAVYYCAAVYFYSWEGDGDYWGQGTQVTVSS | low polyreactivity |
| QVQLVESGGGLVQAGGSLRLTCAASGLTFLVYALGWYRQEPGKEWEFVATISKSGGRTYYADSVKGRFTISRDNAKNTVYVQMNSLKPEHTAVDYCAAKGYPYGRLWCGYYRYDYWGQGTQVTVSS | high polyreactivity |
| QVQLVESGGGLVQAGGSLRLTCAASGLTFNHNAMGWCRQAPGKERELVAAISRRGGSTYYADSVKGRFTISRDNAKNTVYLQMNSLKPEDTAVYYCAARRAWSWKIYDYWGQGTQVTVSS | high polyreactivity |
| QVQLVESGGGLVQAGGSLRLTCAASGLTFNYYAMGWYRQAPGKERELVAAISSDGRTDYADSVKGRFTISRDNAKNTVYLQMNSLKPEDTAVYYCAASWYRWGKSWRQYDYWGQGTQVNVSS | low polyreactivity |
| QVQLVESGGGLVQAGGSLRLTCAASGLTFSFYAMGWYRQAPGKEWELVAALSKGGGSTSYADSVKGRFTISRDNAKNTFYLQRNSLKPGDTAVYSCAAKDYKAPNKRLYDYWGQGTQVTVSS | high polyreactivity |
| QVQLVESGGGLVQAGGSLRLTCAASGNIYLYYAMGWYRQAPGKERELVADIDSSGASTYYADSVKGRFTSSRDNAKNTVYLQMNSLKAEDTAVYYCAAEFHWWYAGYDYGYWGQGTQVTVSS | low polyreactivity |
| QVQLVESGGGLVQAGGSLRLTCAASGNTFVSNAMGWYRQAPGKERELVAAIDSGGSTNYADSVKGRFTISRDNAKNTVYLQMNSLKPEDTAVYYCNRTSVYYYYWGQGTQVTVSS | low polyreactivity |
| QVQLVESGGGLVQAGGSLRLTCAASGPIFVLYAMGWYRQAPGKERELVAAISTSGGSTYYADSVKGRFTISRDNAKNTVYLQMNSLKPEDTAVYYCAADRSARFLFIQYYPYGMDYWGQGTQVTVSS | high polyreactivity |
| QVQLVESGGGLVQAGGSLRLTCAASGRIFSSYAMGWYRQAPGKERELVAAITGRDGSTYYADSVKGRFTISRDNAKNTVYLQMNSLKPEETAVYYCAASRFYFPLTFGGYPKLASYDYWGQGTQVTVSS | low polyreactivity |
| QVQLVESGGGLVQAGGSLRLTCAASGRIFSYYDMGWYRKAPGKERELVARISYSGDSTYYADSVKGRFTISRDNAKNTVYLQMNSLKPEDTAVYYCAAEVDSGYSEYYWGQGTQVTVSS | low polyreactivity |
| QVQLVESGGGLVQAGGSLRLTCAASGRIFTSYAMGWYRQAPGKERELVATITGSTASTYYADSVKGRFTISRDNAKYTVYLQMNSLKPEDTAVYYCAARSVGKRGYDYWGQCTQVTVSS | high polyreactivity |

Source: the nanobody polyreactivity screen of Harvey et al. (2022)
